# Data reported in patent WO2014208760A1 (dated 2014).
# T1: Control peptide
# T1 construct: Coated on the ELISA plate at 10 ug/mL
# T1 peptide: MNAANVGWNGSTFA
# T2: 67LR 161-170 peptide
# T2 construct: Synthetic peptide coated on the ELISA plate at 10 ug/mL; also called ESM peptide; EGCG sensing motif (ESM)
# T2 peptide: IPCNNKGAHS
# Key:
# [1] = biological target: 67 kDa laminin receptor protein (human, UniProt P08865 2-295); assay: cell-based or functional assay
# [2] = biological target: T1, Control peptide; assay: ELISA, peptide coated at 10 ug/mL, HRP anti-mouse IgG, absorbance at 405 nm
# [3] = biological target: T2, 67LR 161-170 peptide; assay: ELISA of hybridoma culture supernatant on coated 67LR 161-170 peptide
# [4] = biological target: T1, Control peptide; assay: ELISA, peptide coated at 10 ug/mL, done as for ESM-8
"acidic sphingomyelinase activity in HL60 cells (TLC of BODIPY-C12-sphingomyelin), relative to Control mIgG [1] [times]",binding result [2],binding result [3],binding result [4],Binder
~3,no binding,binds,,"ESM-8 antibody (ESM-8 monoclonal antibody) (antibody, V domains shown, it was detected with anti-mouse IgG and compared with Control mIgG; also called monoclonal antibody ESM-8; EMS-8 antibody) VH: QVQLKQSGPGLVQPSQSLSITCTVSGFSLTTYGVHWVRQSPGKGLEWLGVIWSGGNTDYNAAFMSRLSISKDNSKSQVFFKMNSLRTTDTAIYYCARNSLLLPFDVWGAGTTVTVSS VL: DVVMTQTPLSLPVSLGDQASISCRSSQSLVHSNGYTYLHWYLQKPGQSPKLLIYKVSNRFSGVPDRFSGSASGTDFTLKISRVEAEDLGVYFCSQSTHVPWTFGGGTKLEIK"
,,binds,no binding,"ESM-16 antibody (ESM-16 monoclonal antibody) (antibody, V domains shown, Mouse hybridoma antibody; in flow cytometry it was detected with goat anti-mouse IgM and compared with Isotype Control mIgM, which points to IgM; also called monoclonal antibody ESM-16; EMS-16 antibody) VH: EVMLVESGGGLVKPGGSLKLSCAASGFTFSSYAMSWVRQTPEKRLEWVATISSGGSYTYYPDSVKGRFTISRDNAKNTLYLQMSSLRSEDTAMYYCARNWDLDYWGQGTTLTVSS VL: DIVMTQSPATLSVTPGDRVSLSCRASQSISDYLHWYQQKSHESPRLLIKYASQSISGIPSRFSGSGSGSDFTLSINSVEPEDVGVYYCQNGHSFPYTFGGGTKLEIK"
